Data on five sequences can be found in the supplement of paper PMC12455559.

The nature of series [1]: purified protein yield per well (BCA); higher = higher soluble expression. The method in brief: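 Values under 25 ug (0.1 mg/mL) are below the detection threshold. Purified protein yield per well was quantified with the Pierce Rapid Gold BCA kit after candidate enzymes, expressed in E. coli C41(DE3), were captured on Ni-charged magnetic beads and released by SUMO protease on an OT-2 robot. Cultures were 2 mL autoinduction with 100 µg/mL kanamycin, run 2 h at 37 °C and then 40 h at 18 °C.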

Series [2] can be described thus: melting temperature (DSF); higher = more thermostable. The method in brief: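 Enzymes made in E. coli C41(DE3) were nickel-bead purified and cut free with SUMO protease before testing. Differential scanning fluorimetry gave each melting temperature. For this, 5 μL 5X Sypro Orange was added to 45 μL enzyme (0 to 0.3 mg/mL) in sealed PCR plates, and a Bio-Rad CFX96 read fluorescence from 25 °C over 250 cycles of 0.3 °C each, ramping at 0.3 °C/s.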

The nature of series [3]: PET hydrolysis, aromatic products released after 48 h (umol product/mg enzyme); higher = more PET depolymerization activity. In outline:
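The measure of PET hydrolysis activity is aromatic product released into the supernatant, given per mg enzyme. Nickel-purified, SUMO-cleaved enzyme without tag was added at 5 μg (50 μL) to 3.5 mg amorphous PET film or crystalline PET powder in 450 μL of citrate, phosphate or glycine buffer spanning pH 4.5 to 8.5. After 48 h at 40 or 60 °C in sealed plates without shaking, absorbance at 260 and 280 nm was taken against buffer blanks.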

The mark [4] stands for this setting: substrate: aFilm, 40 °C, pH 4.5.
The mark [5] stands for this setting: substrate: aFilm, 40 °C, pH 5.5.
The mark [6] stands for this setting: substrate: aFilm, 40 °C, pH 6.5.
Where [7] appears, read: substrate: aFilm, 40 °C, pH 7.5.
The mark [8] stands for this setting: substrate: aFilm, 60 °C, pH 4.5.
Where [9] appears, read: substrate: aFilm, 60 °C, pH 5.5.
Where [10] appears, read: substrate: aFilm, 60 °C, pH 6.5.
Setting [11] is: substrate: aFilm, 60 °C, pH 7.5.
Setting [12] is: substrate: cryPow, 40 °C, pH 4.5.
[13] abbreviates: substrate: cryPow, 40 °C, pH 5.5.
Where [14] appears, read: substrate: cryPow, 40 °C, pH 6.5.
Where [15] appears, read: substrate: cryPow, 40 °C, pH 7.5.
[16] abbreviates: substrate: cryPow, 60 °C, pH 4.5.
Setting [17] is: substrate: cryPow, 60 °C, pH 5.5.
[18] abbreviates: substrate: cryPow, 60 °C, pH 6.5.
The mark [19] stands for this setting: substrate: cryPow, 60 °C, pH 7.5.

± gives the standard deviation of the averaged measurements.

Regarding “QYQKGPDPTVSALERTGSFATRTTTVSRTSASGFGGGTIYYPTASGSYGAIAISPGFTAYQSSISWMGTRLASHGFVVITIDTITTSDQPDSRGRQLKAALDKVVSLSRSSSSPIYNKVDTTRLAVAGHSMGGGGTLAAARDYPSLKAAVPLAPWHTTKSWSRVTVPTLIIGGSTDTIASVGLHSIPFYTSLPSSTNKAYMELSGEGHFFPQTSSNYPLVGRYMISWFKRFVDGDSRYSPFLCGAQHQADLGLFSDISDYRENCPY [ESM169]”, the “purified protein yield per well” value in series [1] amounted to 219 µg. In series [2], this sequence had a melting temperature of 61.3 C. Besides, the PET hydrolysis in series [3] (setting [4]) is under 3; in series [3] (setting [5]) it was 6 ± 1.4; in series [3] (setting [6]), 10.5 ± 0.71; in series [3] (setting [7]) it was 18.5 ± 0.71; in series [3] (setting [8]) it was under 3; in series [3] (setting [9]) it was under 3. Moreover, the PET hydrolysis in series [3] (setting [10]) is 6.5 ± 0.71; in series [3] (setting [11]), 6 ± 1.4; in series [3] (setting [12]), under 3; in series [3] (setting [13]), 15 ± 2.8; in series [3] (setting [14]) it was 32.5 ± 0.71; in series [3] (setting [15]), 57 ± 11. The PET hydrolysis was under 3 in series [3] (setting [16]), 9 in series [3] (setting [17]), 24.5 ± 2.1 in series [3] (setting [18]) and 29 ± 1.4 in series [3] (setting [19]).
Turning to “AEAADNPYQRGPDPTLASVAATRGPFATAQATVPAGNGFNGGYVYYPTDTSLGTWGAVAIVPGYSALFADEEAWMGPWLASFGFVVLGIETNSRTDGADARATQLLAALDYLTQSSPVRHRVDANRLGVMGHSAGGAGTLMAALRRPSLKSAVGLAPGAPGNSLNMSTTQVPTMLISGQNDGTVTPSYVQGIYNTLPATVEHAWAELAGNDHLSFTRPNPTEMRILIPWLKIFLDNDTRYTQFLCPLADSTGVSRYSATCPLVPPGGPTAPPTVTPPPPTPTTPSPTTPPTSAACTATYRTVNSWSGGFQGEVTVTAGRAAINGWTVRWDLGNGQSISQVWNGTLSTSGSTATVRNVSYNGSLAPAASTGFGFLGTGAPAIPRLTCTSP [ESM037]”, the “purified protein yield per well” value in series [1] was found to be 358 µg. The same sequence registered a melting temperature in series [2] of 73.3 C. Further, the PET hydrolysis in series [3] (setting [4]), in series [3] (setting [5]), in series [3] (setting [6]), in series [3] (setting [7]), in series [3] (setting [8]) and in series [3] (setting [9]) was under 3 each time. The PET hydrolysis in series [3] (setting [10]), in series [3] (setting [11]), in series [3] (setting [12]), in series [3] (setting [13]), in series [3] (setting [14]) and in series [3] (setting [15]) was under 3 in each case. For the same sequence, the PET hydrolysis in series [3] (setting [16]), in series [3] (setting [17]), in series [3] (setting [18]) and in series [3] (setting [19]) was under 3 throughout.
In the case of “VQIGPAPTKASLEASRGPFTVATTRLSANGHGGGTIYYPTNAGAKVGVIAIVPGYLSYQSSIEWWGPRLASHGFAVVTIDTLTIYDQPSSRSSQQLRALDQVVALGSKSTSPLYNKVDGSRTGVMGWSMGGGGSLISAQNRPSIKAAAPQAPWNTTSNFSSLTVPTLIFACQADVVAPILSHAVPFYNSMSRNPKQYLERTAGDHFCFNNANPTVGLKGVAWMKRFIDGDTRYTSFACSNPNALGFSSFRTERCS [ESM053]”, the “purified protein yield per well” value in series [1] was 103 µg. This sequence displayed a melting temperature in series [2] of 62.8 C. The PET hydrolysis in series [3] (setting [12]) was under 3; in series [3] (setting [13]), 6; in series [3] (setting [14]), 10; in series [3] (setting [15]) it was 32; in series [3] (setting [16]) it was under 3; in series [3] (setting [17]), under 3. In addition, the PET hydrolysis in series [3] (setting [18]) was 6; in series [3] (setting [19]), 10.
Regarding “TDNPHQRGPNPSQASISANRGTFATAETSVGSGNGFGAAKIYYPTDTGQGTFGAIAVSPGYTATWAAEGAWMGHWLASFGFVVIGIDTINRNDFDVARGTQLLAALDYLTQRSSVRTRVDPSRLAVMGHSMGGGGTISAALRRPTLKAAIGLAPYSPSQTTTGMQVPTVLLAGQNDGTSTPASIITLHNNIPASTEKAYLELTGAGHGFPTSNNSVVTRKVIPWMKIFIDQDTRYTQFLCPLQDWTGIRSYRNSCPLLPNDPGTTFSLAGSASGKCVDVPGRVQTNGTGLIIWTCNGAANQHWTRTAAGELRIYGNSKCMDASGQGARVTINSCNGGSGQKWTVGTNGTVTNAASAGCLDTGGTADNAPVIVTTCNGGSGQIWIKRS [ESM184]”, the “purified protein yield per well” value in series [1] came out at 34 µg. For the same sequence, in series [2], the melting temperature came out at 43 C. The PET hydrolysis in series [3] (setting [12]), in series [3] (setting [13]), in series [3] (setting [14]) and in series [3] (setting [15]) was under 3 throughout.
For “DSPYQRGPDPTLASVAATRGPFATTQATVPAGNGFNGGFVYYPTDTSLGTWGAVAIVPGYSALFANEEAWMGPWLASFGFVVLGIETNSRTDGADARATQLLAGLDYLTRTSPVRSRVDANRLGVMGHSAGGAGTLLAALRRPSLKTAVGLAPGTPGNNLNMSTTQVPTLLLSGQNDGTVTPSYVQGIYNTLPATVEHAWAELAGNDHLSFTRSNPTEMRLLIPWLKIFLDSDTRYTQFLCPLADSTGVSRYSSTCPLVPSGGPTPPPTTTPPPPTTTPPPTSTPPPPTTTPPPTTPPAGTACTATYRTVNSWSGGFQAEVTVTAGSTATDGWTVRWNLGAGQSVSQVWNGTLSTSGTTATVRNAAYNGTLAPGTSTTFGFLGSGTPSSPSPTCTSP [ESM011]”, in series [1], the “purified protein yield per well” value stood at 240 µg. In addition, in series [2], the melting temperature is 62.2 C. For the same sequence, the PET hydrolysis in series [3] (setting [4]), in series [3] (setting [5]), in series [3] (setting [6]), in series [3] (setting [7]), in series [3] (setting [8]) and in series [3] (setting [9]) was under 3 throughout. For the same sequence, the PET hydrolysis in series [3] (setting [10]), in series [3] (setting [11]), in series [3] (setting [12]), in series [3] (setting [13]), in series [3] (setting [14]) and in series [3] (setting [15]) was under 3 throughout. Further, the PET hydrolysis in series [3] (setting [16]), in series [3] (setting [17]), in series [3] (setting [18]) and in series [3] (setting [19]) was under 3 in each case.
